Laboratory results from the RNAGym collection of RNA variant scans (doi:10.7554/elife.80360).

B1: Hairpin Ribozyme (parent)
chain: GUCCUCUUUCACGUGCGCGUGAAAGAGAGAAGUGAACCAGAGAAACACACGUUGUGGUAUAUUACCUGGUA

Variants of: B1
Test: self-cleavage, relative activity (ratio to wild type); higher = more cleavage; co-transcriptional
In the case of C10U G27C, the self-cleavage is reported as 0.0988.
Work on C10G C38G yielded a self-cleavage of 0.133.
For C10G C38U, the self-cleavage was 0.435.
A11C G32U showed a self-cleavage of 0.063.
Work on A11C G32A yielded a self-cleavage of 0.179.
Variant C10G G25U has a self-cleavage of 0.481.
For C10G G25A, the self-cleavage was 0.211.
Work on C10A A30G yielded a self-cleavage of 0.131.
With C10A A30U the self-cleavage was 0.156.
For C10A A30C, the self-cleavage was 0.122.
Variant U9G C46A has a self-cleavage of 0.204.
In the case of U9G C46G, the self-cleavage is reported as 0.161.
In the case of U9G C46U, the self-cleavage is reported as 0.0772.
Work on A11C A43C yielded a self-cleavage of 0.
A11C A43G showed a self-cleavage of 0.0792.
With U9G U70G the self-cleavage was 0.539.
Work on A11C A61C yielded a self-cleavage of 0.24.
Variant A11C U67G has a self-cleavage of 0.168.
Work on A11C U67A yielded a self-cleavage of 0.116.
C10A G51C showed a self-cleavage of 0.566.
Variant A11C G57U has a self-cleavage of 0.323.
Variant C10A G54C has a self-cleavage of 0.355.
Work on C10G U14G yielded a self-cleavage of 0.378.
With C10G U14C the self-cleavage was 0.573.
With C10G U14A the self-cleavage was 0.635.
Variant C10A A64G has a self-cleavage of 0.397.
U9G G40A showed a self-cleavage of 0.179.
U9G G40U gave a self-cleavage of 0.086.
For C10G U20C, the self-cleavage was 0.647.
C10G U20G showed a self-cleavage of 0.561.
Work on U9G G13C yielded a self-cleavage of 0.528.
Variant A11C U14A has a self-cleavage of 0.533.
In the case of U9G G69A, the self-cleavage is reported as 0.223.
U9G G69U gave a self-cleavage of 0.111.
For U9G A24U, the self-cleavage was 0.483.
A11C A28C gave a self-cleavage of 0.481.
Work on C10U A31C yielded a self-cleavage of 0.135.
Work on A11C G13U yielded a self-cleavage of 0.717.
In the case of A11C G13C, the self-cleavage is reported as 0.503.
In the case of U9G C48A, the self-cleavage is reported as 0.12.
U9G C48U gave a self-cleavage of 0.158.
U9G C48G gave a self-cleavage of 0.0994.
Variant U9G U52C has a self-cleavage of 0.546.
U9G U52A showed a self-cleavage of 0.705.
U9G U52G showed a self-cleavage of 0.492.
Work on C10G G34C yielded a self-cleavage of 1.08.
U9G C65U showed a self-cleavage of 0.122.
Variant C10G G42C has a self-cleavage of 0.307.
Variant C10G G42U has a self-cleavage of 0.214.
For A11C C38G, the self-cleavage was 0.0848.
For A11G A45G, the self-cleavage was 0.271.
In the case of A11G A45C, the self-cleavage is reported as 0.124.
With A11G A47U the self-cleavage was 0.131.
A11G A47G showed a self-cleavage of 0.0539.
Work on C10A G68A yielded a self-cleavage of 0.177.
For C10A A31C, the self-cleavage was 0.09.
With U9G G68U the self-cleavage was 0.189.
C10U U58C gave a self-cleavage of 0.771.
Work on C10U U58G yielded a self-cleavage of 0.557.
C10G G56C gave a self-cleavage of 0.149.
In the case of C10G G56U, the self-cleavage is reported as 0.109.
Work on U9G U53G yielded a self-cleavage of 0.656.
Work on C10A A49G yielded a self-cleavage of 0.357.
C10A G29A gave a self-cleavage of 0.111.
A11C G54A gave a self-cleavage of 0.508.
U9G U14C showed a self-cleavage of 0.831.
For A11C G19A, the self-cleavage was 0.741.
Variant A11C A47U has a self-cleavage of 0.251.
In the case of C10G C65A, the self-cleavage is reported as 0.746.
With A11G A43C the self-cleavage was 0.0944.
In the case of A11G A43G, the self-cleavage is reported as 0.128.
A11G A43U gave a self-cleavage of 0.199.
A11C G42U gave a self-cleavage of 0.214.
With A11C A31U the self-cleavage was 0.18.
In the case of A11C A31G, the self-cleavage is reported as 0.437.
A11G A59G showed a self-cleavage of 0.199.
Variant C10U A61U has a self-cleavage of 0.246.
With C10A G42A the self-cleavage was 0.149.
For C10U A43C, the self-cleavage was 0.189.
For C10U A43G, the self-cleavage was 0.113.
Work on C10G A49G yielded a self-cleavage of 0.343.
For C10G A11U, the self-cleavage was 0.358.
Work on C10G A11C yielded a self-cleavage of 0.799.
For C10A U55C, the self-cleavage was 0.248.
Variant C10A U55G has a self-cleavage of 0.303.
C10A A11C gave a self-cleavage of 0.624.
With C10A A11G the self-cleavage was 0.644.
In the case of C10U A26C, the self-cleavage is reported as 0.687.
C10G G68A showed a self-cleavage of 0.172.
In the case of C10G G68U, the self-cleavage is reported as 0.148.
With C10A G32C the self-cleavage was 0.0945.
C10A G32U gave a self-cleavage of 0.156.
With C10A G17U the self-cleavage was 0.681.
Work on A11C G17U yielded a self-cleavage of 0.745.
For A11C G17C, the self-cleavage was 0.745.
In the case of A11C U52A, the self-cleavage is reported as 0.762.
In the case of C10A U70G, the self-cleavage is reported as 0.767.
C10A U70C gave a self-cleavage of 0.616.
C10U G32C gave a self-cleavage of 0.17.
With A11G A39U the self-cleavage was 0.495.
For C10A C38U, the self-cleavage was 0.425.
For U9G A43G, the self-cleavage was 0.116.
U9G A43U showed a self-cleavage of 0.111.
With C10U G13A the self-cleavage was 0.662.
U9G A49G gave a self-cleavage of 0.558.
Work on C10G C37G yielded a self-cleavage of 0.372.
C10G C37U gave a self-cleavage of 0.379.
Variant C10U A47U has a self-cleavage of 0.109.
Work on C10U A47C yielded a self-cleavage of 0.257.
Work on C10U A47G yielded a self-cleavage of 0.169.
Variant C10A A45C has a self-cleavage of 0.111.
Work on C10A A45U yielded a self-cleavage of 0.121.
C10U G68C showed a self-cleavage of 0.229.
In the case of C10G A26G, the self-cleavage is reported as 0.776.
For C10G A26C, the self-cleavage was 0.383.
For C10G A26U, the self-cleavage was 0.352.
C10G G15U showed a self-cleavage of 0.851.
Work on C10G G15A yielded a self-cleavage of 0.624.
Variant U9G C18U has a self-cleavage of 0.793.
Work on A11C U60A yielded a self-cleavage of 0.716.
Work on A11C U60G yielded a self-cleavage of 0.714.
For A11C C50G, the self-cleavage was 0.321.
For C10A G21C, the self-cleavage was 0.67.
In the case of C10A G21A, the self-cleavage is reported as 0.856.
Work on C10G U62G yielded a self-cleavage of 0.138.
Work on C10U G25C yielded a self-cleavage of 0.487.
In the case of C10A A47G, the self-cleavage is reported as 0.2.
Variant C10U U55A has a self-cleavage of 0.213.
C10U U55G showed a self-cleavage of 0.201.
With C10U U55C the self-cleavage was 0.337.
In the case of C10A A24C, the self-cleavage is reported as 0.598.
With C10G A31G the self-cleavage was 0.576.
Work on C10G A31C yielded a self-cleavage of 0.198.
In the case of C10A A35C, the self-cleavage is reported as 0.846.
C10U G17U showed a self-cleavage of 0.665.
For C10U A49U, the self-cleavage was 0.0687.
In the case of C10G C12A, the self-cleavage is reported as 0.491.
Work on U9G C16U yielded a self-cleavage of 0.857.
With U9G C16A the self-cleavage was 0.668.
For C10A G40C, the self-cleavage was 0.158.
With C10A A61G the self-cleavage was 0.183.
A11C G40A gave a self-cleavage of 0.318.
U9G G51U gave a self-cleavage of 0.814.
A11C C12U showed a self-cleavage of 0.766.
Work on A11C C12G yielded a self-cleavage of 0.903.
Variant U9G C50U has a self-cleavage of 0.393.
Work on U9G C50G yielded a self-cleavage of 0.208.
U9G C50A showed a self-cleavage of 0.24.
For A11G A28U, the self-cleavage was 0.447.
For U9G A28G, the self-cleavage was 1.01.
In the case of U9G A28C, the self-cleavage is reported as 0.315.
Work on U9G G34C yielded a self-cleavage of 0.833.
U9G G34A gave a self-cleavage of 0.8.
With C10U U52C the self-cleavage was 0.949.
C10U U52G gave a self-cleavage of 0.564.
Variant A11C A71C has a self-cleavage of 1.15.
A11C A71G gave a self-cleavage of 0.902.
A11C A71U showed a self-cleavage of 0.747.
For U9G A41G, the self-cleavage was 0.593.
Variant C10G A28C has a self-cleavage of 0.306.
C10G U60C showed a self-cleavage of 0.815.
For A11C G25C, the self-cleavage was 0.457.
In the case of A11C G25A, the self-cleavage is reported as 0.504.
C10G C48G gave a self-cleavage of 0.0825.
For U9G C37A, the self-cleavage was 0.117.
Variant U9G C37G has a self-cleavage of 0.229.
In the case of U9G C66G, the self-cleavage is reported as 0.172.
